This note sets out measurements from the supplement of paper PMC7877785.

± gives the uncertainty stated by the source.

A short description of this data set: self-splicing fitness, log relative to wild type (ln ratio); higher = more splicing; Tetrahymena group I intron in knt gene, E. coli kanamycin selection, DiMSum; sequences stand for … in CUCUCU…GGAGGGAAAAGUUAUCAGGCAUGCACCUGGUAGCUAGUCUUUAAACCAAUAGAUUGCAUCGGUUUAAAAGGCAAGACCGUCAAAUUGCGGGAAAGGGGUCAACAGCCGUUCAGUACCAAGUCUCAGGGGAAACUUUGAGAUGGCCUUGCAAAGGGUAUGGUAAUAAGCUGACGGACAUGGUCCUAACCACGCAGCCAAGUCCUAAGUCAACAGAUCUUCUGUUGAUAUGGAUGCAGUUCACAGACUAAAUGUCGGUCGGGGAAGAUGUAUUCUUCUCAUAAGAUAUAGUCGGACCUCUCCUUAAUGGGAGCUAGCGGAUGAAGUGAUGCAACACUGGAGCCGCUGGGAACUAAUUUGUAUGCGAAAGUAUAUUGAUUAGUUUUGGAGUACUCGUGGUCG
In outline: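 Six replicate transformations of E. coli BL21(DE3) with a pET-22b(+) library were grown overnight at 37°C or 30°C. The library randomised all eight P1ex-region intron nucleotides, the intron lying in the knt kanamycin-resistance gene, and plates were LB agar with or without 25 μg/mL kanamycin plus 100 μg/mL carbenicillin, 50 μM IPTG and 0.2% rhamnose. Pooled colonies were amplicon-sequenced on an Illumina HiSeq 2500, and fitness is the DiMSum error-weighted combination of wild-type-normalised replicate fold changes, kanamycin versus none.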

Consider AGGAAGCAAUAUUACGACAA, for which the “self-splicing fitness (ln)” value was -1.66 ± 0.12 (30 °C) and -1.49 ± 0.14 (37 °C).
For AUGGAGCAAUAUUACGGCGU, in that order: 0.125 ± 0.14 and 0.224 ± 0.14.
On the same counts, the results for CCCAAGCAAUAUUACGCGGU are -3.41 ± 0.12 and -1.77 ± 0.12.
For AAGAAGCAAUAUUACGCUGG, in that order: -2.37 ± 0.2 and -0.515 ± 0.2.
On to GAUGAGCAAUAUUACGGACU, for which the “self-splicing fitness (ln)” value is -1.79 ± 0.25 (30 °C) and -1.66 ± 0.38 (37 °C).
For ACGAAGCAAUAUUACGCUAA, in that order: -1.22 ± 0.079 and -0.582 ± 0.083.
For CUACAGCAAUAUUACGUGCU, the “self-splicing fitness (ln)” value (37 °C) was -2 ± 0.13.
For the sequence UCCCAGCAAUAUUACGGGCU, the “self-splicing fitness (ln)” value by setting is: (30 °C) -1.71 ± 0.066; (37 °C) -1.32 ± 0.087.
In the case of GACUAGCAAUAUUACGGUUU, the “self-splicing fitness (ln)” value (30 °C) was -1.7 ± 0.092 and the “self-splicing fitness (ln)” value (37 °C) is -1.53 ± 0.11.
For GGGAAGCAAUAUUACGAUCU, in that order: -0.627 ± 0.27 and -0.134 ± 0.24.
On the same counts, the results for AAUAAGCAAUAUUACGACCU are 0.104 ± 0.12 and 0.726 ± 0.16.
On the same counts, the results for CCUCAGCAAUAUUACGAUUC are -3.88 ± 0.43 and -2.44 ± 0.49.
Regarding GUACAGCAAUAUUACGUUUC, the “self-splicing fitness (ln)” value is -3.44 ± 0.14 (30 °C) and -1.87 ± 0.14 (37 °C).
For GAACAGCAAUAUUACGCGUA, the “self-splicing fitness (ln)” value was -0.925 ± 0.072 (30 °C) and -0.411 ± 0.07 (37 °C).
On the same counts, the results for ACUAAGCAAUAUUACGCCUG are -1.78 ± 0.14 and -0.595 ± 0.15.
For AGCUAGCAAUAUUACGUAUA, in that order: -2.28 ± 0.15 and -2.12 ± 0.23.
On the same counts, the results for ACCGAGCAAUAUUACGAGAU are -2.96 ± 0.12 and -2.48 ± 0.18.
GGUCAGCAAUAUUACGUUAA: the “self-splicing fitness (ln)” value (30 °C) was -1.4 ± 0.099 and the “self-splicing fitness (ln)” value (37 °C) is -0.249 ± 0.088.
For GCCUAGCAAUAUUACGAGUU, in that order: -1.58 ± 0.061 and -0.309 ± 0.078.
For GUUAAGCAAUAUUACGUACU, in that order: -0.559 ± 0.15 and -0.935 ± 0.14.
For UAUGAGCAAUAUUACGAUCC, the “self-splicing fitness (ln)” value (37 °C) was -3.06 ± 0.47.
Take CGCUAGCAAUAUUACGAUUC: the “self-splicing fitness (ln)” value is -3.29 ± 0.36 (30 °C) and -2.12 ± 0.21 (37 °C).
Regarding AAGGAGCAAUAUUACGCAGA, the “self-splicing fitness (ln)” value (37 °C) is -2.56 ± 0.45.
As to UCCGAGCAAUAUUACGAUGC, the “self-splicing fitness (ln)” value (30 °C) was -1.93 ± 0.19.
Take UUACAGCAAUAUUACGACUA: the “self-splicing fitness (ln)” value is 0.0835 ± 0.1 (30 °C) and 0.256 ± 0.12 (37 °C).
For UCGCAGCAAUAUUACGACGA, the “self-splicing fitness (ln)” value (30 °C) is -1.67 ± 0.17 and the “self-splicing fitness (ln)” value (37 °C) was -0.408 ± 0.14.
Consider GGUCAGCAAUAUUACGCCGC, for which the “self-splicing fitness (ln)” value is -2.96 ± 0.26 (30 °C) and -2.62 ± 0.36 (37 °C).
On to UUUCAGCAAUAUUACGUUUC, for which the “self-splicing fitness (ln)” value (37 °C) is -2.28 ± 0.29.
CUCAAGCAAUAUUACGCUUA: the “self-splicing fitness (ln)” value by setting is: (30 °C) -2.62 ± 0.27; (37 °C) -3.26 ± 0.37.
As for UAUCAGCAAUAUUACGUCCC, the “self-splicing fitness (ln)” value by setting is: (30 °C) -2.83 ± 0.34; (37 °C) 0.683 ± 0.26.
For CCCUAGCAAUAUUACGAUAA, in that order: -4.04 ± 0.22 and -2.48 ± 0.22.
On the same counts, the results for UUAUAGCAAUAUUACGCAUU are -3.19 ± 0.23 and -2.72 ± 0.2.
In the case of ACCUAGCAAUAUUACGAAGC, the “self-splicing fitness (ln)” value (30 °C) was -1.56 ± 0.11 and the “self-splicing fitness (ln)” value (37 °C) is -0.832 ± 0.15.
With UUUAAGCAAUAUUACGGUAA, the “self-splicing fitness (ln)” value reads like this: (30 °C) -1.08 ± 0.12; (37 °C) -1.01 ± 0.096.
For the sequence AGGUAGCAAUAUUACGCGCG, the “self-splicing fitness (ln)” value is, setting by setting: (30 °C) -0.525 ± 0.016; (37 °C) -0.215 ± 0.035.
For GUAAAGCAAUAUUACGGCCU, in that order: -0.0192 ± 0.12 and 0.105 ± 0.12.
Regarding UGUUAGCAAUAUUACGCGUC, the “self-splicing fitness (ln)” value reads like this: (30 °C) -3.45 ± 0.33; (37 °C) -2.79 ± 0.36.
In the case of ACUUAGCAAUAUUACGUUCU, the “self-splicing fitness (ln)” value runs as follows: (30 °C) -1.28 ± 0.064; (37 °C) -0.195 ± 0.087.
For CCGAAGCAAUAUUACGGGAC, in that order: -4.02 ± 0.26 and -3.3 ± 0.26.
As to CGGAAGCAAUAUUACGUAGA, the “self-splicing fitness (ln)” value runs as follows: (30 °C) -3.45 ± 0.2; (37 °C) -1.82 ± 0.19.
ACUUAGCAAUAUUACGAUCU: the “self-splicing fitness (ln)” value runs as follows: (30 °C) -0.0945 ± 0.076; (37 °C) 0.51 ± 0.1.
On the same counts, the results for AGAUAGCAAUAUUACGGUAU are -1.43 ± 0.098 and -0.614 ± 0.1.
For GCCAAGCAAUAUUACGUGUU, in that order: -0.889 ± 0.049 and -0.309 ± 0.06.
For AAGCAGCAAUAUUACGGGGG, the “self-splicing fitness (ln)” value (30 °C) was -3.26 ± 0.22 and the “self-splicing fitness (ln)” value (37 °C) is -1.92 ± 0.16.
Take UUCUAGCAAUAUUACGGUCU: under “37 °C”, the “self-splicing fitness (ln)” value was -3.7 ± 0.36.
In the case of CAAAAGCAAUAUUACGUGGG, the “self-splicing fitness (ln)” value runs as follows: (30 °C) -3.26 ± 0.12; (37 °C) -2.6 ± 0.12.
Take CCAAAGCAAUAUUACGGUCG: the “self-splicing fitness (ln)” value is -0.306 ± 0.066 (30 °C) and -0.674 ± 0.077 (37 °C).
For GACAAGCAAUAUUACGCAUG, in that order: -2.33 ± 0.13 and -0.814 ± 0.14.
On the same counts, the results for CCACAGCAAUAUUACGUCAU are -3.67 ± 0.16 and -2.81 ± 0.16.
For AGUUAGCAAUAUUACGGCCA, in that order: -0.965 ± 0.16 and 0.403 ± 0.29.
With AGAUAGCAAUAUUACGAUCC, the “self-splicing fitness (ln)” value is -1.68 ± 0.38 (30 °C) and -0.656 ± 0.39 (37 °C).
For ACGAAGCAAUAUUACGUAGA, in that order: -3.72 ± 0.24 and -2.89 ± 0.27.
On the same counts, the results for GGUAAGCAAUAUUACGUUCA are -0.432 ± 0.081 and 0.0273 ± 0.12.
For UAUGAGCAAUAUUACGGCAU, in that order: -2.94 ± 0.27 and -2.05 ± 0.41.
For GUUUAGCAAUAUUACGCUUU, the “self-splicing fitness (ln)” value runs as follows: (30 °C) -2.38 ± 0.25; (37 °C) -0.513 ± 0.22.
For the sequence AGAAAGCAAUAUUACGAGUA, the “self-splicing fitness (ln)” value by setting is: (30 °C) -2.18 ± 0.097; (37 °C) -1.13 ± 0.086.
For AUAAAGCAAUAUUACGCUAU, in that order: -1.28 ± 0.089 and -0.692 ± 0.098.
For GGUGAGCAAUAUUACGGUGA, in that order: -2.81 ± 0.23 and -1.28 ± 0.21.
On the same counts, the results for AUACAGCAAUAUUACGUCUU are -0.218 ± 0.059 and 0.336 ± 0.074.
Take UUGGAGCAAUAUUACGCUCA: the “self-splicing fitness (ln)” value (30 °C) was -1.16 ± 0.15 and the “self-splicing fitness (ln)” value (37 °C) was -1.53 ± 0.24.
For UAUCAGCAAUAUUACGGUGC, in that order: -3.27 ± 0.19 and -1.14 ± 0.14.
Consider GAUUAGCAAUAUUACGUGGA, for which the “self-splicing fitness (ln)” value was -3.92 ± 0.3 (30 °C) and -0.488 ± 0.13 (37 °C).
Take GAUGAGCAAUAUUACGAAGG: the “self-splicing fitness (ln)” value (30 °C) was -1.14 ± 0.26.
CGCAAGCAAUAUUACGCGCA: the “self-splicing fitness (ln)” value by setting is: (30 °C) -1.1 ± 0.086; (37 °C) -1.46 ± 0.13.
On the same counts, the results for GAGAAGCAAUAUUACGUUUG are -2.98 ± 0.11 and -1.85 ± 0.14.
For GUCUAGCAAUAUUACGUACU, in that order: -0.946 ± 0.11 and -0.0535 ± 0.1.
On the same counts, the results for UACAAGCAAUAUUACGUACG are -3.9 ± 0.22 and -1.3 ± 0.13.
Regarding GCAGAGCAAUAUUACGGAGC, the “self-splicing fitness (ln)” value (30 °C) is -2.89 ± 0.28 and the “self-splicing fitness (ln)” value (37 °C) is -2.84 ± 0.28.
On the same counts, the results for CGUAAGCAAUAUUACGAGUU are -3.38 ± 0.17 and -2.6 ± 0.23.
Take AGCCAGCAAUAUUACGUUAC: the “self-splicing fitness (ln)” value runs as follows: (30 °C) -4.34 ± 0.31; (37 °C) -1.88 ± 0.21.
Regarding CGAAAGCAAUAUUACGAGUC, the “self-splicing fitness (ln)” value was -2.98 ± 0.18 (30 °C) and -2.22 ± 0.35 (37 °C).
For UAACAGCAAUAUUACGUCAG, in that order: -1.53 ± 0.073 and -0.0779 ± 0.085.
On the same counts, the results for UACGAGCAAUAUUACGGGGA are -2.87 ± 0.29 and -1.69 ± 0.19.
On the same counts, the results for AACAAGCAAUAUUACGCAUG are -1.7 ± 0.082 and -0.726 ± 0.1.
As to UAGUAGCAAUAUUACGAGGG, the “self-splicing fitness (ln)” value is -3.04 ± 0.42 (30 °C) and -2.03 ± 0.36 (37 °C).
For AGAGAGCAAUAUUACGGGAA, in that order: -4.12 ± 0.35 and -2.62 ± 0.28.
For UUUUAGCAAUAUUACGUUGU, in that order: -2.65 ± 0.18 and -2.13 ± 0.24.
